For experiment [1], the target named is T1, Recombinant human HGF R/c-Met Fc chimera (R&D systems, cat no. 358-MT/CF) (human, UniProt P08581 25-932).
T1 construct: Bought reagent; also called human c-Met-Fc; human-c-Met; not shown: Fc part of the purchased chimera
The experiment is described as follows: SPR (BIAcore), human c-Met-Fc immobilized on chip, antibody flowed. Here is the method: (§1) The binding capacity to c-Met of the antibody was measured by BIAcore (GE Healthcare). According to the manufacturer's manual, sensorgrams were secured by immobilizing mouse-c-Met and human-c-Met (R&D system) on a CMS chip (GE Healthcare, Sweden), and flowing various amounts of antibodies. Rate constants kon and koff were measured on the basis of the sensorgrams secured at each concentration, and Kd was calculated from the ratio of rate constants (koff/kon) (Table 3). As a result, 1E4-IgG had high binding capacity with mouse-c-Met as well as binding capacity with human-c-Met (FIG. 8).

For experiment [2], the target named is T2, mouse c-Met-Fc (mouse, UniProt P16056 25-931, limits assumed).
T2 construct: Bought reagent (R&D system); also called mouse-c-Met (R&D system); not shown: Fc part
The experiment is described as follows: SPR (BIAcore), mouse c-Met-Fc immobilized on chip, antibody flowed. How it is done:
as §1
In general terms: SPR reads the build-up and loss of mass on a sensor chip optically.

The target of experiment [3] is T1, Recombinant human HGF R/c-Met Fc …. The experiment is described as follows: SPR (BIAcore), human c-Met-Fc immobilized on chip, antibody flowed; koff/kon. Here is the method:
as §1

Experiment [4] deals with T2, mouse c-Met-Fc. The experiment is described as follows: SPR (BIAcore), mouse c-Met-Fc immobilized on chip, antibody flowed; koff/kon. How it is done:
as §1

Experiment [5] has as its target T1, Recombinant human HGF R/c-Met Fc …. The experiment is described as follows: phage ELISA, c-Met 100 ng coated, anti-M13-HRP detection, A450.

T1 sequence (P08581 25-932, change not shown): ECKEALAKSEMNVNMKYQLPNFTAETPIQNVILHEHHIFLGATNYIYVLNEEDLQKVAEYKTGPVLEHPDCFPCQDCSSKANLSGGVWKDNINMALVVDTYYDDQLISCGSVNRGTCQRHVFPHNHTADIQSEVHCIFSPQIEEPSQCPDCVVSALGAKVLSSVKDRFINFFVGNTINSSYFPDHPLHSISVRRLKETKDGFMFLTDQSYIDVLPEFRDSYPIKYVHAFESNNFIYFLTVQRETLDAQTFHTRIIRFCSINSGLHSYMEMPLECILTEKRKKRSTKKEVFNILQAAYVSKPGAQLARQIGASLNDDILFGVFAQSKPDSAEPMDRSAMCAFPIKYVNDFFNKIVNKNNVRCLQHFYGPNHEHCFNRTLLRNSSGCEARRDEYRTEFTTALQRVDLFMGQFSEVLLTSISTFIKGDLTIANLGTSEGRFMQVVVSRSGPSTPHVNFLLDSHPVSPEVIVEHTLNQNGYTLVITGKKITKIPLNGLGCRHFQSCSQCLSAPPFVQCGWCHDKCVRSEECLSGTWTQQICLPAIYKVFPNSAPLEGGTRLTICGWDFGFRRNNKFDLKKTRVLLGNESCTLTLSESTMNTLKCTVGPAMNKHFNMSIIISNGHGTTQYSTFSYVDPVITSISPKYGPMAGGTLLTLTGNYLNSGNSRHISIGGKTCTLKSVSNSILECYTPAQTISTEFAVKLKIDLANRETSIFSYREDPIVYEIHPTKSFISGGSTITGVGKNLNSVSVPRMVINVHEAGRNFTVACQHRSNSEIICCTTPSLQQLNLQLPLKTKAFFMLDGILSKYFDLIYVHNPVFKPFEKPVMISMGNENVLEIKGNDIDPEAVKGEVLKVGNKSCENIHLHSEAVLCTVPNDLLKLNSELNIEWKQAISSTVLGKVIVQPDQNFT
T2 sequence (P16056 25-931 limits assumed): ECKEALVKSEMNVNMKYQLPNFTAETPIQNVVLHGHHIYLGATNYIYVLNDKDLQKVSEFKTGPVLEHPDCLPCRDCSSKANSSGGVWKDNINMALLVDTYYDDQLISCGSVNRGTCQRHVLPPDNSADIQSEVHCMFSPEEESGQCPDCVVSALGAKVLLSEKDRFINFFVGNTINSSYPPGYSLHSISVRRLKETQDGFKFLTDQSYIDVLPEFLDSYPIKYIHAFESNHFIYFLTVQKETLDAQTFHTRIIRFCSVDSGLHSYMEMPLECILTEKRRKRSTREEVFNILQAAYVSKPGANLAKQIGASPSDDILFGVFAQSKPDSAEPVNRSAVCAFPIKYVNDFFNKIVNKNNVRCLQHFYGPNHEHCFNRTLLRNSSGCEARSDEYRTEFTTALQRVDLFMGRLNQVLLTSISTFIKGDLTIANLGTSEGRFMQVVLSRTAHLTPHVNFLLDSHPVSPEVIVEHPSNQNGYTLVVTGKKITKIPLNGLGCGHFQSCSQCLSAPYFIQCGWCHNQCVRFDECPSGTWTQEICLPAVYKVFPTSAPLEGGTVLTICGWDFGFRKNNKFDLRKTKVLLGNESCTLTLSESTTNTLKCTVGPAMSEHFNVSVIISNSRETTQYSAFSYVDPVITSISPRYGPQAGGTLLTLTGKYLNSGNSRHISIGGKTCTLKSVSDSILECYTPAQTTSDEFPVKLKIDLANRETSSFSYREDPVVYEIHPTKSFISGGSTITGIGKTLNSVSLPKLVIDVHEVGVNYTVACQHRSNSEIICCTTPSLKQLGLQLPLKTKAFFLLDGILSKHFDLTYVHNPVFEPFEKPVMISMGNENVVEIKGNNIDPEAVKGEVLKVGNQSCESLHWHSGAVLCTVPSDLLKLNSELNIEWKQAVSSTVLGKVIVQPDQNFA

B1: 1E4-IgG (antibody, V domains shown)
VH: QVQLVQSGAEVKKPGESLRISCQGSGYSFPTHWITWVRQMPGKGLEWMGTIDPTDSYNFYGPSFQGHVTISADSSSSTAYLQWSSLKASDTAMYYCARDGNYYDSRGYYYDTFDMWGQGTLVTVSS
VL: DIQMTQSPSFLSASVGDRVTITCRASQGISTYLAWYQQKPGTAPKLLIYSASTLESGVPSRFSGSGSGTDFTLTISSLQPEDSATYYCQQADSFPLTFGGGTKVEIKR
notes: also called 1E4 antibody; anti-c-Met IgG (1E4-IgG)
As a reminder, the koff is the rate constant with which the complex falls apart. In general, kon refers to the rate constant with which the complex forms. What is called Kd is the concentration at which binding is half-saturated. Take B1: the koff in experiment [1] was found to be 0.000807 s⁻¹; in experiment [2], 0.00159 s⁻¹. Moreover, the kon in experiment [1] came out at 2.71e+06 M⁻¹ s⁻¹; in experiment [2] it was 2.58e+06 M⁻¹ s⁻¹. In addition, the results for the equilibrium dissociation constant (Kd) in experiment [3] and in experiment [4] were 0.298 nM and 0.615 nM, respectively.

B2: 1E4-ScFv (scFv)
scFv: QVQLVQSGAEVKKPGESLRISCQGSGYSFPTHWITWVRQMPGKGLEWMGTIDPTDSYNFYGPSFQGHVTISADSSSSTAYLQWSSLKASDTAMYYCARDGNYYDSRGYYYDTFDMWGQGTLVTVSSGLGGLGGGGSGGGGSGGSSGVGSDIQMTQSPSFLSASVGDRVTITCRASQGISTYLAWYQQKPGTAPKLLIYSASTLESGVPSRFSGSGSGTDFTLTISSLQPEDSATYYCQQADSFPLTFGGGTKVEIKRGGASLVE
notes: also called soluble 1E4-ScFv; not shown: tags implied by Ni-NTA purification and anti-Myc detection
For the molecule B2, in experiment [5], the binding result is listed as “binds”.

For the origin of these results see US20170233492A1 (PHARMABCINE, published 2017).
